Experimental data: patent US8017152B2, “Cores and microcapsules suitable for parenteral administration as well as process for their manufacture” (Stratosphere Pharma AB, priority 2005, dated 2011)

Assay: Protein integrity of encapsulated hGH by size exclusion HPLC (SEC-HPLC): dimer, polymer and aggregate forms
Assay type: physicochemical
Details: before encapsulation
Protocol: Three batches of maltodextrin microspheres were prepared (50% W/W, 1 ml, 1 ml and 1.8 ml, respectively, in sodium acetate, 10 mM, pH 6.4, 2 mM zinc acetate) in which the GH was suspended manually. The compositions were transferred to Miglyol 829 (10, 20 and 30 ml, respectively), W/O emulsions were created by homogenization (Turrax) and left under refrigeration over night (about 16 hours), then centrifuged (Sorvall SS34, 7000 rpm, 10 min) and washed three times with cold acetone (about 30 g, centrifugation 5 min), allowed to air dry and sieved. The batches were sieved and then pooled. […] The protein quality was determined after centrifugation using HPLC size exlusion chromatography (SEC-HPLC, TSK2000 SWxl, Tosoh Corporation) according to Reslow et al. (supra). […] The fractions were pooled to provide about 0.57 g of cores.
The core loading was about 75% on the pooled batches. Protein integrity was determined after suspending the cores in a buffer (50 mM HEPES, 10 mM EDTA, pH 7.3). After gentle mixing for about one hour the cores had dissolved.
Free flowing single core microcapsules were obtained as evaluated by light microscopy. Protein integrity was determined essentially according to Reslow et al. (supra), including removal of the PLGA coating with a mixture of methylene chloride and acetone.

Human growth hormone [hGH]
dimer content of hGH starting material / before immobilisation: approximately 2.4%
dimer content of hGH starting material / before immobilisation (listed as GH): about 2.4%
